Results from paper doi:10.1101/2020.06.12.148387 (bioRxiv, 2020).

Biological target: T1, SARS-CoV-2 Spike ectodomain (pre-fusion, with proline mutations) (SARS-CoV-2, early reference strain …, residues 986 and 987 mutated to a Pro-Pro sequence)
T1 construct: also called pre-fusion Spike; trimeric Spike
Experiment: cryo-EM structure
Details: both partners purified

B1: EY6A Fab (digested from IgG with papain) (Fab, V domains shown)
VH: EVQLVESGGGVVQPGRSLRLSCAASAFTFSSYDMHWVRQAPGKGLEWVAVISYDGSNKYYADSVKGRFTISRDNSKNTLYLQMNSLRAEDTAVYYCAKDGGKLWVYYFDYWGQGTLVTVSS
VL: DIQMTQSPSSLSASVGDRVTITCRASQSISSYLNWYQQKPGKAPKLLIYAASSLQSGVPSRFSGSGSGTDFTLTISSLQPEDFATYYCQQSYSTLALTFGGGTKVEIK
notes: also called Fab-EY6A; source: digested from ExpiCHO-made IgG with papain (Pierce Fab Preparation Kit)
  stoichiometry N: 3 Fabs per Spike trimer
